We go through 58 variants from the FLAb antibody collection (doi:10.7554/elife.23156).

B1: scFv; the commonest letter at each place (parent)
chain 1: EVKLDETGGGLVQPGRPMKLSCVASGFTFSDYWMNWVRQSPEKGLEWVAQIRNKPYNYETYYSDSVKGRFTISRDDSKSSVYLQMNNLRVEDMGIYYCTGSYYGMDYWGQGTSVTVS
chain 2: DVVMTQTPLSLPVSLGDQASISCRSSQSLVHSNGNTYLRWYLQKPGQSPKVLIYKVSNRFSGVPDRFSGSGSGTDFTLKISRVEAEDLGVYFCSQSTHVPWTFGGGTKLEIK

Variants of B1 are the subject of the data set “fluorescein”. The experiment in a line: Kd (Tite-Seq). As to conditions: with fluorescein; format: scFv 4-4-20, heavy + light.
In data set [1] the parent is B1. The experiment in a line: yeast surface expression (ratio to wild type); higher = more expressed. As to conditions: format: scFv 4-4-20, heavy + light.

Where only a bound is given, the exact number is not on record here.

What is called Kd is the concentration at which binding is half-saturated.

On to chain 1 G100E D106M, for which the Kd with fluorescein is no less than 10 µM. For the same variant, in data set [1], the yeast surface expression came to 0.17.
On the same counts, the results for chain 1 G100E D106H are no less than 10 µM and 0.289.
For the variant chain 1 G100E D106Q, the Kd with fluorescein is no less than 10 µM. For the same variant, the yeast surface expression in data set [1] turned out to be 0.172.
Taken in the same sequence, the figures for chain 1 F29T S30C were 0.0391 µM and 0.804.
On the same counts, the results for chain 1 G100C D106Q are no less than 10 µM and 0.754.
On to chain 1 G100C D106N, for which, in the data set with fluorescein, the Kd is 0.00343 µM. Besides, the yeast surface expression in data set [1] is 0.768.
On the same counts, the results for chain 1 G100C D106G are no less than 10 µM and 0.553.
chain 1 F29Y M34E: the Kd in the data set with fluorescein was no less than 10 µM. Further, the yeast surface expression in data set [1] came to 0.542.
Taken in the same sequence, the figures for chain 1 F29Y M34K were no less than 10 µM and 0.646.
On the same counts, the results for chain 1 F29W N35G are no less than 10 µM and 0.71.
Consider chain 1 G100C Y102A, for which the Kd with fluorescein is 0.00279 µM. For the same variant, the yeast surface expression in data set [1] worked out at 1.47.
Taken in the same sequence, the figures for chain 1 F29V W36L were no less than 10 µM and 0.332.
In the case of chain 1 F29V W36S, the Kd in the data set with fluorescein was no less than 10 µM. Moreover, in data set [1], the yeast surface expression turned out to be 0.52.
Turning to chain 1 F29W S30V N35H, the Kd with fluorescein is no less than 10 µM. The yeast surface expression in data set [1] worked out at 0.547.
Taken in the same sequence, the figures for chain 1 G100A Y102R G109C were no less than 10 µM and 0.266.
On the same counts, the results for chain 1 F29Y D31E W33G are no less than 10 µM and 1.63.
Taken in the same sequence, the figures for chain 1 F29Y M34Q V37M were 4.37 µM and 0.485.
As to chain 1 G100F G109N, the Kd with fluorescein is no less than 10 µM. In data set [1], the yeast surface expression is 0.41.
On the same counts, the results for chain 1 G100F G109K are no less than 10 µM and 0.265.
Taken in the same sequence, the figures for chain 1 F29Y S30D were 0.0038 µM and 0.937.
Taken in the same sequence, the figures for chain 1 G100A W108Y were no more than 0.000316 µM and 0.892.
As for chain 1 G100A, the Kd with fluorescein was determined as 0.0017 µM. Also, the yeast surface expression in data set [1] was determined as 0.964.
On the same counts, the results for chain 1 G100F are no less than 10 µM and 0.93.
Taken in the same sequence, the figures for chain 1 G100D were no less than 10 µM and 0.453.
On the same counts, the results for chain 1 G100C are 0.00162 µM and 0.893.
Turning to chain 1 G100E, in the data set with fluorescein, the Kd was no less than 10 µM. For the same variant, the yeast surface expression in data set [1] was found to be 0.388.
Taken in the same sequence, the figures for chain 1 F29T W36D were no less than 10 µM and 0.484.
On the same counts, the results for chain 1 G100E Y102S W108I are 0.0302 µM and 0.245.
Taken in the same sequence, the figures for chain 1 G100D G109N were no less than 10 µM and 0.118.
Consider chain 1 G100D G109T, for which the dissociation constant Kd with fluorescein is no less than 10 µM. The yeast surface expression in data set [1] came out at 0.21.
On to chain 1 G100D G109H, for which the Kd in the data set with fluorescein is no less than 10 µM. The yeast surface expression in data set [1] turned out to be 0.602.
Take chain 1 G100D G109I: the Kd with fluorescein was no less than 10 µM. Moreover, the yeast surface expression in data set [1] was determined as 0.553.
Taken in the same sequence, the figures for chain 1 G100D G109V were no less than 10 µM and 0.136.
On the same counts, the results for chain 1 G100E Y102G are no less than 10 µM and 0.488.
On the same counts, the results for chain 1 F29V D31E are 1.47 µM and 0.753.
chain 1 F29W W36Y: the Kd with fluorescein is no less than 10 µM. The yeast surface expression in data set [1] stood at 0.591.
On the same counts, the results for chain 1 G100E Y107H are no less than 10 µM and 0.501.
Taken in the same sequence, the figures for chain 1 F29S S30H were 0.832 µM and 0.945.
Taken in the same sequence, the figures for chain 1 G100A D106W were no less than 10 µM and 0.393.
With chain 1 F29T M34S, in the data set with fluorescein, the Kd is no less than 10 µM. Besides, in data set [1], the yeast surface expression worked out at 0.649.
Taken in the same sequence, the figures for chain 1 F29T M34K were no less than 10 µM and 0.35.
On the same counts, the results for chain 1 F29T M34N are no less than 10 µM and 0.548.
Taken in the same sequence, the figures for chain 1 F29T S30D M34V were no less than 10 µM and 0.837.
As to chain 1 G100D M105W W108Y, the Kd in the data set with fluorescein was no less than 10 µM. Besides, the yeast surface expression in data set [1] was 0.168.
In the case of chain 1 F29V V37G, the Kd with fluorescein is 5.96 µM. In data set [1], the yeast surface expression turned out to be 0.65.
On the same counts, the results for chain 1 F29V Y32W M34W are 0.185 µM and 1.07.
For chain 1 F29Y, in the data set with fluorescein, the Kd was found to be 0.000783 µM. Moreover, the yeast surface expression in data set [1] was determined as 0.978.
On the same counts, the results for chain 1 F29T are 0.00941 µM and 0.981.
Taken in the same sequence, the figures for chain 1 F29V were 0.00967 µM and 0.929.
Taken in the same sequence, the figures for chain 1 F29W were 0.0562 µM and 0.661.
As to chain 1 F29Y N35H, the Kd with fluorescein was no less than 10 µM. Moreover, in data set [1], the yeast surface expression came out at 0.732.
As to chain 1 F29Y N35A, the Kd with fluorescein was no less than 10 µM. The yeast surface expression in data set [1] was determined as 0.842.
For chain 1 F29Y N35W, in the data set with fluorescein, the Kd is no less than 10 µM. The yeast surface expression in data set [1] was 0.0981.
On the same counts, the results for chain 1 G100E G109Y are no less than 10 µM and 0.199.
On the same counts, the results for chain 1 F29Y Y32S are no less than 10 µM and 0.95.
Turning to chain 1 F29Y Y32H, the Kd in the data set with fluorescein turned out to be 0.205 µM. For the same variant, the yeast surface expression in data set [1] was found to be 0.756.
On the same counts, the results for chain 1 F29Y Y32A are 0.00708 µM and 1.02.
Taken in the same sequence, the figures for chain 1 F29Y Y32R were no less than 10 µM and 0.761.
